We go through 41 variants from the RNAGym collection of RNA variant scans (doi:10.7554/elife.90254).

B1: OR4K15 (parent)
chain: GUUAACGGUCAUAGGCCAUGGAAACUAGGAGCACCAUUUCGCUGCCAGUGAAGAAAUGAACAAAGAAAAUCUGGGCCAGGCAGGCAUCAAAAGAAAUAGUCUUGCGCUCAACCAGAAAGUCUGUAAUCAUUUUAAGGGUA

Variants of B1 are the subject of this data set. Briefly: self-cleavage, relative activity (ratio to wild type); higher = more cleavage; in vitro, sequencing; the parent is a self-cleaving ribozyme.
Turning to GUUAACGGUCAUAGGCCAUGGAAACUAGGAGCACCAUUUCGCUGCCAGUUAAGAAAUGAACAAAGAAAAUCUGGGCCAGGCAGGCAUCAAAAGAAAUAGUCUUGCGCUCAACCAGAAAGUCUGUAACCAUUUUAAGGGUA [G50U U127C], the self-cleavage turned out to be 1.29. Next, GUUAACGGUCAUAGGCCAUGGAAACUAGGAGCACCAUUUCGCUGCCAGUGAAGAAAUGAACUAAGAAAAUCUUGGCCAGGCAGGCAUCAAAAGAAAUAGUCUUGCGCUCAACCAGAAAGUCUGUAAUCAUUUUAAGGGUA [A62U G73U]: 0.17; GUUAACGGUCAUAGGCCAUGGAAACGAGGAGCACCAUUUCGCUGCCAGUGAAGAAAUGAACAAAGAAAAUCUGGGCCAGGCAGGCAUCAAAAGAAAUAGUCUUGCGCUCAACCUGAAAGUCUGUAAUCAUUUUAAGGGUA [U26G A114U]: 0.06. The value for GUUAACGGUCAUAAGCCAUGGAAACUAGGAGCACCAUUUCGCUGCCAGUGAAGAAAUGAACAAAGAAAAUUUGGGCCAGGCAGGCAUCAAAAGAAAUAGUCUUGCGCUCAACCAGAAAGUCUGUAAUCAUUUUAAGGGUA [G14A C71U] was 0.37; that for GUUAACGGUCAUAGGCCAUGGACACUAGGAGCACCAUUUCGCUGCCAGUGAAGAAAUGAACAAAGAAAAUCUGGGCCAGGCAGGCAUCAAAAGAAAUAGUCUUGCGCUCAACCAGAAAGUCUGUAAUCAUUUUAAGGGUA [A23C] was 0.9; that for GUUAACGGUCAUAGGCCAUGGAAACUAGGAGCACCAUUUUGCUGCCAGUGAAGAAAUGAACAAAGAAAAUCUGGGCCAGGCAGGCAUCUAAAGAAAUAGUCUUGCGCUCAACCAGAAAGUCUGUAAUCAUUUUAAGGGUA [C40U A89U] was 1.93. The value for GUUAACGGUCAUAGGCCAUGGAAACUAGGAGCACCGUUUCGCUGCCAGUGAAGAAAUGAACAAAGAAAACCUGGGCCAGGCAGGCAUCAAAAGAAAUAGUCUUGCGCUCAACCAGAAAGUCUGUAAUCAUUUUAAGGGUA [A36G U70C] was 0.6; that for GUUAACUGUCAUAGGCCAUGGAAACUAGGAGCACCAUUUCGCUGCCAGUGAAGAAAUGAACAAAGAAAAUCUGGGCCAGGCAGGCAUCAAGAGAAAUAGUCUUGCGCUCAACCAGAAAGUCUGUAAUCAUUUUAAGGGUA [G7U A91G] was 0.72.

With GUUAACGGUCAUAGGCCAUGGAAACUAGGAGCACCAUUUCGCUGCCAGUGAAGAAAUGAACAAAGAAAAUCUGGGCCAGGCAGGCAUCAAAAGAAACAGUCUUGCGCUCAUCCAGAAAGUCUGUAAUCAUUUUAAGGGUA [U97C A111U], the self-cleavage is 0.07. The value for GUUAACGGUCAUAGGCCAUGGAAACUAGGAGCACCAUUUCACUGCCAGUGAAGAAAUGAACAAAGAAAAUCUGGGCCAGGCAGGCAUCAAAAGAAAUAGUCUUGCGCUCCACCAGAAAGUCUGUAAUCAUUUUAAGGGUA [G41A A110C] was 0.4.

Regarding GUUAACGGUCAUAGGCCAUGGAAACUAGGAGCACCAUUUCGCUGCAAGUGAAGAAAUGAACAAAGAAAAUCUGGGCCAGGCAGGCAUCAAAAGAAAUAGUCUUGCGCUCAAUCAGAAAGUCUGUAAUCAUUUUAAGGGUA [C46A C112U], the self-cleavage was 0.01. Regarding GUUAACGGUCAUAGGCCAUGGAAACUAGGAGCACCAUUUCGCUGCCAGUGAAGAAAUGAACAAAGAAAAUCUGGGCCAGGCAGGCAUCAAAAGAAAUAGCCUUGCGCUCAACCAGAAAGUCUGUAAUCAUCUUAAGGGUA [U100C U131C], the self-cleavage stood at 2.14. Next, GUUAACGGUCAUAGGCCAUGGAAGCUAGGAGCACCAUUUCGCUGCCAGUGAAGAAAUGAACAAAGAAAAUCUGGGCCAGGCAGGCAUCAAAAGAAAUAGUCUUGCGCUCAUCCAGAAAGUCUGUAAUCAUUUUAAGGGUA [A24G A111U]: 0.19; GUUAACGGUCAUAGGUCAUGGCAACUAGGAGCACCAUUUCGCUGCCAGUGAAGAAAUGAACAAAGAAAAUCUGGGCCAGGCAGGCAUCAAAAGAAAUAGUCUUGCGCUCAACCAGAAAGUCUGUAAUCAUUUUAAGGGUA [C16U A22C]: 1.53. Next, GUUAACUGUCAUAGGCCAUGAAAACUAGGAGCACCAUUUCGCUGCCAGUGAAGAAAUGAACAAAGAAAAUCUGGGCCAGGCAGGCAUCAAAAGAAAUAGUCUUGCGCUCAACCAGAAAGUCUGUAAUCAUUUUAAGGGUA [G7U G21A]: 0.87; GUUAACGGUCAUAGGCCAUGGAAACUAGGAGCACCAUUUCGCCGUCAGUGAAGAAAUGAACAAAGAAAAUCUGGGCCAGGCAGGCAUCAAAAGAAAUAGUCUUGCGCUCAACCAGAAAGUCUGUAAUCAUUUUAAGGGUA [U43C C45U]: 1.6. Next, GUUAACGGUCAUAGGCCAUGGAAACUAGGAGCACCAUUUCGCUGCCAGUGAAGAAAUGAACAAAGAAAUUCUGGGCCAGGCAGGCAUCAAAAGAAAUAGUCUUGCGCUCAACCAGAAAGUCUGUAUUCAUUUUAAGGGUA [A69U A126U]: 0.72; GUUAACGGUCAUAGGCCAUGGAAACUAGGAGCACCAUUUCGCUGCCAGUGAAGAAAUGAACAAAGAAAAUCGGGGCCAGGCAGGCGUCAAAAGAAAUAGUCUUGCGCUCAACCAGAAAGUCUGUAAUCAUUUUAAGGGUA [U72G A86G]: 0.1; GUUAACGGUCAUAGGCCAUGGAGACUAGGAGCACCAUUUCGCUGCCAGUGAAGAAAUGAACAAAGAAAAUCUGGGCCAGGCAGGCAUCAUAAGAAAUAGUCUUGCGCUCAACCAGAAAGUCUGUAAUCAUUUUAAGGGUA [A23G A90U]: 1.85. GUUAACGGUCAUAGGCCAUGGAUACUAGGAGCACCAUUUCGCUGCCAGUGAAGAAAUGAACAAAGAAAAUCUGGGCCAGGCGGGCAUCAAAAGAAAUAGUCUUGCGCUCAACCAGAAAGUCUGUAAUCAUUUUAAGGGUA [A23U A82G]: the self-cleavage came out at 0.82. Turning to GUUAACGGUCAUAGGCCAUGGAAACUAGGAGCACCAUUUCGCUGCCAGUGAAGAAAUGAACAAAGAAAAUCUGGGCCAGGCAGGCAUCGAAAGAAAUAGUCUUGCGCUCAACCAGAAAGUCAGUAAUCAUUUUAAGGGUA [A89G U122A], the self-cleavage was 1. Next, GUUAACGGUCAUAGGCCAUGGAAACUAGGAGCACCAUUUCGCUGCCAGUGAAGAAAUGAACAAAGAAAAUCUGGGCCAAGCAGGCACCAAAAGAAAUAGUCUUGCGCUCAACCAGAAAGUCUGUAAUCAUUUUAAGGGUA [G79A U87C]: 0.1. The value for GUUAACGGUCAUAGGCCAUGGAAACUAGGAGCACCAUUUCGCUGCCAGUGAAGAAAUGAACAAAGAAAAUCUGGGCCAGGCGGGCAUCAGAAGAAAUAGUCUUGCGCUCAACCAGAAAGUCUGUAAUCAUUUUAAGGGUA [A82G A90G] was 0.31; that for GUUAACGGUCAUAGGCCAUGGAAACUAGGAGCACCAUUUCGCUGCCAGUGAAGAAAUGAACAAAGAAAAUCUGGGCCAGGCAGGCAUCAAAAGAAAUAGUCUGGCGCUCAACCAGAAAGUCUGUAAUCAUCUUAAGGGUA [U103G U131C] was 0.01; that for GUUAACGGUCAUAGGCCGUGGAAACUAGGAGCACCAUUUCGCUGCCAGUGAAGAAAUGAACAAAGAAAGUCUGGGCCAGGCAGGCAUCAAAAGAAAUAGUCUUGCGCUCAACCAGAAAGUCUGUAAUCAUUUUAAGGGUA [A18G A69G] was 1.9. Next, GUUAACGGUCAUAGGCCAUGGAAACUAGGAGCACCAUUUCGCUGCCAGUGAAGAAAUGAACAAAGAAAAUCUGGUCCAGGCAGGCAUCAAAAGAAAUAGUCUUGCGCUCAACCAGAAAGUCUGUAAUCAUUUUAGGGGUA [G75U A135G]: 0.16; GUUAACGGUCAUAGGCCAUGGAAACUAGGAGCACCAUUUCGCUGCCAGUGAAGAAAUGGACAAAGAAAAUCUGGGCCAGGCAGGCAUCAAAAGAAAUAGUCUUGCGCUCAACCAGGAAGUCUGUAAUCAUUUUAAGGGUA [A59G A116G]: 0.77. For the variant GUUACCGGUCAUAGGCCAUGGAAACUAGGAGCACCAUUUCGCUGCCAGUGAAGAAAUGAACAAAGAAAAUCUGGGCCAGGCAGGCACCAAAAGAAAUAGUCUUGCGCUCAACCAGAAAGUCUGUAAUCAUUUUAAGGGUA [A5C U87C], the self-cleavage is 0.73.

Regarding GUUAACGGUCAUAGGCCAUGGAAACUAGGAGCACCAUUUCGCUGCCAGUGAAGAAAUGAACAAAGAAAAUCUGGGCCGGGCAGGCAUCAAAAGAAAUAGUCUUGCGCUCAACCUGAAAGUCUGUAAUCAUUUUAAGGGUA [A78G A114U], the self-cleavage is 0.01. GUUAACGGUCAUAGGCCACGGAAACUAGGAGCACCAUUUCGCUGCCAGUGAAGAAACGAACAAAGAAAAUCUGGGCCAGGCAGGCAUCAAAAGAAAUAGUCUUGCGCUCAACCAGAAAGUCUGUAAUCAUUUUAAGGGUA [U19C U57C]: the self-cleavage came out at 1.37. Consider GUUAACGGUCAUAGGCCAUGGAAACUAGGAGCACCAUUUCGCUGCCAGUGAAGAAAUGAACAAAGUAAAUCUGGGCCAGGCAGGCAUCAAAAGAGAUAGUCUUGCGCUCAACCAGAAAGUCUGUAAUCAUUUUAAGGGUA [A66U A95G], for which the self-cleavage stood at 1.87. The value for GUUAACGGUCAUAGGCCAUGGAAACUAGGAGCACCAUUUCGCUGCCACUGGAGAAAUGAACAAAGAAAAUCUGGGCCAGGCAGGCAUCAAAAGAAAUAGUCUUGCGCUCAACCAGAAAGUCUGUAAUCAUUUUAAGGGUA [G48C A51G] was 0.94; that for GUUAACGGUCAUAGGCCAUGGAAACUAGGAGCACCAUUCCGCUGCCAGUGAAGAAAUGAACAAAGAAAAUCUGGGUCAGGCAGGCAUCAAAAGAAAUAGUCUUGCGCUCAACCAGAAAGUCUGUAAUCAUUUUAAGGGUA [U39C C76U] was 0.19; that for GUUAACGGUCAUAGGCCAUGGAAACUAGGAGCACCAUUUCGCUGCCAGUGAAGAAAUGAACAAAGAAAAUCUGGGCCAGGCAGGCAUCAAAAGAAAUAGUCUUGCGCUCAACCAGAAGGUCUGUAAUCAUCUUAAGGGUA [A118G U131C] was 0.63. The value for GUUAACGGUCAUAGGCCAUGGAAACUAGGAGCACCAUUUCGCCGCCAGUGAAGAAAUGAACAAAGAAAAUCUGGGCCAGGCAGGCAUCAAGAGAAAUAGUCUUGCGCUCAACCAGAAAGUCUGUAAUCAUUUUAAGGGUA [U43C A91G] was 1.29. The value for GUUAACGGUCAUAGGCCAUGGAAACUAGGAGCACCAUUUCGCUGCCAGUGAAGAAAUGAACAAAGAAAAUCUGGGCCAGGCAGGCAUCAAAAGAAAUAGUCUUGCGCUCAACCAGAAAGUCUGUAAUCGUUUUAAGAGUA [A129G G137A] was 0.54. For the variant GUUAACGGUCAUAGGCCAUGGAAACUAGGAGCACCAUUUCGCUGCCAGUGAAGAAAUGAACAAAGAAAAUCUGGGCCAGGCAGGCAUCAAAAGAAAUAGUCUUGCGCUCAACCAGAAAGUCUGUACUCAUUCUAAGGGUA [A126C U132C], the self-cleavage came to 0.5. Next, GUUAACGGUCAUAGGCCAUGGAAACUAGGAGCACCAUUUCGCUGCCAGUGAAGAAACGAACUAAGAAAAUCUGGGCCAGGCAGGCAUCAAAAGAAAUAGUCUUGCGCUCAACCAGAAAGUCUGUAAUCAUUUUAAGGGUA [U57C A62U]: 2.11. Turning to GUUAACGGUCAUAGGCCAUGGAAACUAGGAGCACCAUUUCGCUGCCAGUGAAGAAAUGAACAAAGAAAACCUGGGCCAGGCAGGCAUCAAAAGAAAUAGUCUUGCGCUCAACCGGAAAGUCUGUAAUCAUUUUAAGGGUA [U70C A114G], the self-cleavage was found to be 0.12.

On to GUUAACGGUCAUAGGCCAUGGAAACUAGGUGCACCAUUUCGCUGCCAGUGAAGAAAUGAACAAAGAAAAUCUGGGCCAGGCAGGCAUCAAAAGAGAUAGUCUUGCGCUCAACCAGAAAGUCUGUAAUCAUUUUAAGGGUA [A30U A95G], for which the self-cleavage was determined as 0.89. Next, GUUAACGGUCAUAGGCCAUGGAAACUAGGAGCACCAUUUCGCUGCCAGUGAAGAAAUGAACAAAGAAAAUCUGGCCCAGGCAGGCAUCAAAAGAAAUAGUCUAGCGCUCAACCAGAAAGUCUGUAAUCAUUUUAAGGGUA [G75C U103A]: 0.01.
